55 molecules from patent publication US20110124556 (published 2011) can be followed below.

The target in the assay is human insulin receptor (HIR) (human, UniProt P06213). In words: competition.

Changes are numbered by the printed parent chain. Positions of bridges follow the written chain, without caps; N, C: chain ends. Non-standard residues stand in square brackets, D forms with d. Chains are numbered I, II in the order given. No end group written: not given here. Tyr(3-I) = N[C@@H](Cc1ccc(O)c(I)c1)C(=O)O; Hyp = O=C(O)[C@@H]1C[C@@H](O)CN1; Tic = O=C(O)[C@@H]1Cc2ccccc2CN1; Ac6c = NC1(C(=O)O)CCCCC1; βturn = not defined here

B1: S602 (peptide)
chain: SLEEEWAQIQAEVYGNPNSESFYDWFERQL
B1 came in with a Kd of 0.031 nM.

B2: S605 (peptide)
chain: SLEEEWAQIQHELWPVEKGESFYDWFERQL
modifications: not fully specified (N-terminus); ends and bridges not checked
With B2, the Kd stood at 0.094 nM.

B3: S168 (peptide)
chain: AAAAFYDWFAAAAAKK
Consider B3, for which binding was put at a Kd of 38 nM.

B4: S222 (peptide)
chain: FHENFYDAFVRQVSKK
Turning to B4, the Kd was > 20 nM.

B5: S170 (peptide)
chain 1: CGFHENFYDWFVRQVSKK
chain 2: CGFHENFYDWFVRQVSKK
modifications: disulfide I:1-II:1; not fully specified; ends not checked
Turning to B5, binding was put at a Kd of 700 nM.

B6: S536 (peptide)
chain: LEEEWAQVECEVYGRGCPSESFYDWFERQL
Take B6: binding was characterised by a dissociation constant (Kd) of 0.083 nM.

B7: S568 (peptide)
chain: Ac-SIEEEWAQIKCDVWGRGPSESFYDWFERQLG
modifications: ends and bridges not checked
Regarding B7, the Kd is 0.0043 nM.

B8: S582 (peptide)
chain: SLEEEWAQIECEVWGRGCPKGFYGWFRRRG
With B8, binding was put at a Kd of 2.5 nM.

B9: S441 (peptide)
chain 1: ESFYDWFERQLGGGGK
chain 2: WAWVQCEVYGRGCPS
B9 returned a Kd of 120 nM.

B10: S547 (peptide)
chain: SLEEEWAQVECEVYGRGCPS
Regarding B10, the Kd amounted to 49 nM.

B11: S317 (peptide)
chain: WPGYAWLS
In the case of B11, the Kd is > 20000 nM.

B12: S555 (peptide)
chain: SLEEEWAQVECEVYGRGCPSESFYDWFVRQLG
B12 showed a Kd of 0.057 nM.

B13: S256 (peptide)
chain: [Ac6c]CLEE[dW]GASL[Tic]QCSG
modifications: not fully specified (bridges); printed as Acy-CLEEwGASL-Tic-QCSG; cysteine pairing not given here
On to B13, for which binding was characterised by a dissociation constant (Kd) of 90000 nM.

B14: S573 (peptide)
chain: SLEEEWAQIESEVWGRSESFYDWFERQLG
The molecule B14 displayed an equilibrium dissociation constant (Kd) of 0.036 nM.

B15: S520 (peptide)
chain: SIEEEWAQIKCDVWGRGCPPGLLDESFYHWFDRQLR
The molecule B15 showed a Kd of 0.02 nM.

B16: S268 (peptide)
chain: RD[Hyp]FYDWFDD[dI]
Consider B16, for which the affinity, expressed as Kd, was 450 nM.

B17: S180 (peptide)
chain: AFYDWFAK
On to B17, for which the Kd was > 2000 nM.

B18: S588 (peptide)
chain 1: LEEEWAQVECEV
chain 2: [Tyr(3-I)]GRGCSGSLDESFYDWFERQLG
modifications: ends and bridges not checked
In the case of B18, binding was put at a Kd of 0.18 nM.

B19: S108 (peptide)
chain: FHENFYDWFVAQVSKK
Take B19: the Kd was found to be 750 nM.

B20: S219 (peptide)
chain: FHENAYDWFVRQVSKK
With B20, the Kd was > 2000 nM.

B21: S444 (peptide)
chain 1: ESFYDWFERQLGGGGK
chain 2: VQCEVYGRGCPS
In turn, B21 had a Kd of 190 nM.

B22: S553 (peptide)
chain: SLEEEWAQVECEVYGRGCPPGLLDESFYHWFDRQLR
B22 came in with an equilibrium dissociation constant (Kd) of 0.0073 nM.

B23: S129 (peptide)
chain: SSNFYQALMLLS
Consider B23, for which binding was characterised by a dissociation constant (Kd) of 2900 nM.

B24: S558 (peptide)
chain: SLEEEWAQIECEVWGRGCPSESFYDWFERQL
Molecule B24 gave a Kd of 0.019 nM.

B25: S606 (peptide)
chain: B24 chain with E10Q
modifications: not fully specified (N-terminus); ends and bridges not checked
As for B25, the dissociation constant (Kd) was 0.004 nM.

B26: S572 (peptide)
chain: SLEEEWAQIEEVWGRSESFYDWFERQLG
Turning to B26, the Kd is 4.8 nM.

B27: S359 (peptide)
chain 1: XDWLQRNANFYDWFVAEL
chain 2: XDWLQRNANFYDWFVAEL
modifications: listing feature
B27 gave a Kd of 700 nM.

B28: S294 (peptide)
chain: DWLQRNANFYDWFVAELX
modifications: listing feature
The molecule B28 had a Kd of 130 nM.

B29: S600 (peptide)
chain: Ac-SIEEEWAQIKCDVWGRGSESFYDWFERQL
modifications: ends and bridges not checked
Molecule B29 gave a Kd of 0.0076 nM.

B30: S556 (peptide)
chain: SIEEEWAQIKCDVWGRGCSESFYDWFERQL
B30 had a Kd of 0.032 nM.

B31: S119 (peptide)
chain: SLNFYDALQLLAKK
B31 gave a Kd of 18 nM.

B32: S584 (peptide)
chain: SLEEEWAQIECEVWGRGCPKGFYGWFRRRRG
The molecule B32 came in with a Kd of 9.3 nM.

B33: S594 (peptide)
chain: SLEEEWAQIECEVWGRCWHHSFYDWFERQL
For B33, binding was put at a Kd of 0.071 nM.

B34: S171 (peptide)
chain: CGFHENFYDWFVRQVSKK
modifications: not fully specified; ends and bridges not checked
In the case of B34, the Kd is 29000 nM.

B35: S432 (peptide)
chain 1: ESFYDWFERQLGGGGK
chain 2: CEVYGRGCPS
Turning to B35, binding was put at a Kd of 180 nM.

B36: S287 (peptide)
chain: QAPSNFYDWFVREWDEE
B36 returned a Kd of 59 nM.

B37: S114 (peptide)
chain: [dF][dH][dE][dN][dF][dY][dD][dW][dF][dV][dR][dQ][dV][dS][dK][dK]
B37 yielded a Kd of 83000 nM.

B38: S423 (peptide)
chain 1: ESFYDWFERQLGK
chain 2: ACAWPTYWNCG
modifications: ends and bridges not checked; also: two chains joined C-terminus to C-terminus, the link is not given here
With B38, binding was characterised by a dissociation constant (Kd) of 62 nM.

B39: S437 (peptide)
chain 1: ESFYDWFERQLGGGGK
chain 2: LDQEWAWVQCEVYGRGCPS
Take B39: the Kd came to 0.69 nM.

B40: S433 (peptide)
chain 1: ESFYDWFERQLGGGGK
chain 2: WLDQEWAWVQ
In the case of B40, the affinity, expressed as Kd, was 110 nM.

B41: S543 (peptide)
chain: GSLDESFYDWFERQLGGGSGGSWLDEEWAQVQCEVYGRGCPS
In the case of B41, binding was put at a Kd of 0.019 nM.

B42: S236 (peptide)
chain: DWLQRNANFYDWFVAELG
B42 came in with a Kd of 100 nM.

B43: S591 (protein)
chain 1: LEEEWAQIECEVWGRGCSGSLDESF
chain 2: LEEEWAQIECEVWGRGCSGSLDESF
Molecule B43 had a Kd of 0.13 nM.

B44: S261 (peptide)
chain: WGRSFYRYFETLLAQGI
On to B44, for which the Kd is > 20000 nM.

B45: S503 (peptide)
chain: LDQEWAWVQCEAYGRGCPSESFYDWFERQL
B45 yielded a Kd of 2.1 nM.

B46: S260 (peptide)
chain: LDRQFYRYFQDLLVGFM
In the case of B46, binding was characterised by a dissociation constant (Kd) of 2300 nM.

B47: S581 (peptide)
chain 1: SLEEEWAQIESEVWGR-βturn
chain 2: ESFYDWFERQLG
modifications: not fully specified; printed as SLEEEWAQIESEVWGR-βturn-ESFYDWFERQLG; ends and bridges not checked
B47 showed a Kd of 0.012 nM.

B48: S551 (peptide)
chain: SLEEEWAQVEAEVYGRGAPSGSLDESFYDWFERQLG
B48: the Kd is 0.072 nM.

B49: S511 (peptide)
chain: WLDQEWAWVQCEVYGRGCPSGGSGGSGRVDWLQRNANFYDWFVAELG
As for B49, binding was characterised by a dissociation constant (Kd) of 3.8 nM.

B50: S592 (peptide)
chain: SLEEEWAQIECEVWGRGCPSY
B50 yielded a Kd of 17 nM.

B51: S378 (peptide)
chain 1: GSLDESFYDWFERQLGKKKX
chain 2: GSLDESFYDWFERQLGKKKX
modifications: listing feature
B51 had a Kd of 65 nM.

B52: S533 (peptide)
chain: B45 chain with W7Q, A12V
The molecule B52 gave a Kd of 0.067 nM.

B53: S257 (peptide)
chain: RWPNFYGYFESLLTHFS
B53: binding was put at a Kd of 14000 nM.

B54: S241 (peptide)
chain: NANFYDWFVAELG
B54 yielded a Kd of 16000 nM.

B55: S559 (peptide)
chain: B30 chain with I2L, K10E, D12E
Consider B55, for which binding was characterised by a dissociation constant (Kd) of 0.021 nM.
